Substitutions are numbered along the chain they refer to. Names and notes keep the numbering of the source.

Here are results for eleven molecules from patent US11549123B2, “Plant EPSP synthases and methods of use” (PIONEER HI-BRED INTERNATIONAL, INC., priority 2015, dated 2023).

Substrate in data set [1]: C=C(OP(=O)(O)O)C(=O)O
In words: EPSPS substrate saturation kinetics, WT-FS-E. The class given is biochemical, Zea mays. As to conditions: other: PEP varied; pH 7.0. On the procedure:
(§1) EPSPS activity was determined by quantifying the phosphate generated from the EPSPS reaction. Release of inorganic phosphate was coupled to reaction with 2-amino-6-mercapto-7-methylpurine ribonucleoside, catalyzed by purine-nucleoside phosphorylase (M R Webb, Proc. Natl. Acad. Sci. 89:4884-4887, 1992). The absorbance change that occurs was monitored at 360 nm, where the extinction is 11,200 M^−1 cm^−1, with a Spectramax plate reader (Molecular Devices). To determine kinetic parameters, the varied substrate was present at seven concentrations (the eighth being the blank, containing no substrate) ranging from 4 to 400 uM and the unvaried substrate present at saturation. Six microliters of 50-fold concentrated stock solutions of the varied substrate were placed in the wells of the 96-well assay plate and reactions were started with the addition of a mixture containing 25 mM Hepes, pH 7, 100 mM KCl, 0.3 mM 2-amino-6-mercapto-7-methylpurine ribonucleosde, 1 uM (1 unit/ml) purine-nucleoside phosphorylase (Sigma N8264) and 200 uM of the non-varied substrate. Reactions were monitored with a Spectramax plate reader. […] KI was then calculated from the following form of the Michaelis-Menten equation for competitive inhibition: KI=KM[I]/(KM app−KM) KM approximates the dissociation constant of the enzyme-substrate complex while kcat is the rate of conversion of substrate to product when the substrate concentration is saturating. kcat/KM is a widely accepted parameter for catalytic efficiency when substrate concentration is low (˜KM). […] The parameter kcat/KM×KI is used to quantify both catalytic efficiency and insensitivity and thus the overall fitness of the enzyme. […]
(§2) The vector DNA of the library was transformed into the BL21(DE3) Tuner AroA knockout strain and the cells were plated onto M9 medium containing 50 mM glyphosate. A small aliquot of the transformed cells was plated on LB, by which it was determined that 1.1×10^8 colony forming units, or 20% of the theoretical library size, were plated and screened. […]

Substrate in data set [2]: C=C(OP(=O)(O)O)C(=O)O
In words: purified protein, by the assay type. As to conditions: pH 7.0.

Substrate in data set [3]: C=C(OP(=O)(O)O)C(=O)O
In words: EPSPS substrate saturation kinetics, WT-FS-E2. The class given is biochemical, Zea mays. As to conditions: other: PEP varied; pH 7.0. On the procedure:
EPSPS activity was determined by quantifying the phosphate generated from the EPSPS reaction. Release of inorganic phosphate was coupled to reaction with 2-amino-6-mercapto-7-methylpurine ribonucleoside, catalyzed by purine-nucleoside phosphorylase (M R Webb, Proc. Natl. Acad. Sci. 89:4884-4887, 1992). The absorbance change that occurs was monitored at 360 nm, where the extinction is 11,200 M^−1 cm^−1, with a Spectramax plate reader (Molecular Devices). To determine kinetic parameters, the varied substrate was present at seven concentrations (the eighth being the blank, containing no substrate) ranging from 4 to 400 uM and the unvaried substrate present at saturation. Six microliters of 50-fold concentrated stock solutions of the varied substrate were placed in the wells of the 96-well assay plate and reactions were started with the addition of a mixture containing 25 mM Hepes, pH 7, 100 mM KCl, 0.3 mM 2-amino-6-mercapto-7-methylpurine ribonucleosde, 1 uM (1 unit/ml) purine-nucleoside phosphorylase (Sigma N8264) and 200 uM of the non-varied substrate. Reactions were monitored with a Spectramax plate reader. […] KI was then calculated from the following form of the Michaelis-Menten equation for competitive inhibition: KI=KM[I]/(KM app−KM) KM approximates the dissociation constant of the enzyme-substrate complex while kcat is the rate of conversion of substrate to product when the substrate concentration is saturating. kcat/KM is a widely accepted parameter for catalytic efficiency when substrate concentration is low (˜KM). […] The parameter kcat/KM×KI is used to quantify both catalytic efficiency and insensitivity and thus the overall fitness of the enzyme.
as §2

Data set [4] has as its system sorghum EPSPS. In words: EPSPS reaction rates at 200 uM PEP and S3P, and at 30 uM substrates with 1 mM glyphosate. The class given is biochemical, Sorghum halepense. As to conditions: Sor ha; for Reaction rate, 200 uM, no glyph: PEP and S3P both at 200 uM, no glyphosate; for Reaction rate, 30 uM, 1 mM glyph: substrates at 30 uM, glyphosate at 1 mM. On the procedure:
EPSPS activity was determined by quantifying the phosphate generated from the EPSPS reaction. Release of inorganic phosphate was coupled to reaction with 2-amino-6-mercapto-7-methylpurine ribonucleoside, catalyzed by purine-nucleoside phosphorylase (M R Webb, Proc. Natl. Acad. Sci. 89:4884-4887, 1992). The absorbance change that occurs was monitored at 360 nm, where the extinction is 11,200 M^−1 cm^−1, with a Spectramax plate reader (Molecular Devices). To determine kinetic parameters, the varied substrate was present at seven concentrations (the eighth being the blank, containing no substrate) ranging from 4 to 400 uM and the unvaried substrate present at saturation. Six microliters of 50-fold concentrated stock solutions of the varied substrate were placed in the wells of the 96-well assay plate and reactions were started with the addition of a mixture containing 25 mM Hepes, pH 7, 100 mM KCl, 0.3 mM 2-amino-6-mercapto-7-methylpurine ribonucleosde, 1 uM (1 unit/ml) purine-nucleoside phosphorylase (Sigma N8264) and 200 uM of the non-varied substrate. Reactions were monitored with a Spectramax plate reader. The Michaelis-Menten kinetics protocol of the Spectramax software was customized for the substrate concentrations used. The software returns values of KM and Vmax using the Lineweaver-Burke transformation of the Michaelis-Menten equation. To determine kcat, Vmax (uM/min) was divided by the enzyme concentration (uM). […] KI was then calculated from the following form of the Michaelis-Menten equation for competitive inhibition: KI=KM[I]/(KM app−KM) KM approximates the dissociation constant of the enzyme-substrate complex while kcat is the rate of conversion of substrate to product when the substrate concentration is saturating. kcat/KM is a widely accepted parameter for catalytic efficiency when substrate concentration is low (˜KM). […] The parameter kcat/KM×KI is used to quantify both catalytic efficiency and insensitivity and thus the overall fitness of the enzyme.
Likewise, the mutations present in maize EPSPS 123-C1 (See Table 8) were mapped onto the amino acid sequences of sorghum (SEQ ID NO:23) and the proteins were produced and purified as above.

Substrate in data set [5]: C=C(OP(=O)(O)O)C(=O)O
In words: EPSPS substrate saturation kinetics, WT-FS-B. The class given is biochemical, Zea mays. As to conditions: other: PEP varied; pH 7.0. Here is the method:
as §1, §2

Substrate in data set [6]: C=C(OP(=O)(O)O)C(=O)O
In words: EPSPS substrate saturation kinetics, WT-FS-D. The class given is biochemical, Zea mays. Conditions: other: PEP varied; pH 7.0. On the procedure:
as §1, §2

Data set [7] concerns Glycine max (93Y21) hairy root. In words: Hairy root growth from transformed soybean cotyledons with or without 25 uM glyphosate. The class given is cell-based. Conditions: constructs containing the UBQ10 promoter.
The mark [8] stands for this setting: other: substrate saturation, Zm native.
[9] abbreviates: other: substrate saturation, Zm-G102A.
Setting [10] is: other: substrate saturation, Zm-P107L.

B1: Zea mays EPSPS variant WT-FS-E (102A 302S 391G 438R) (Zea mays; E301S/E390G/G101A/V437R) (protein)
chain: MAGAEEIVLQPIKEISGTVKLPGSKSLSNRILLLAALSEGTTVVDNLLNSEDVHYMLGALRTLGLSVEADKAAKRAVVVGCGGKFPVEDAKEEVQLFLGNAATAMRPLTAAVTAAGGNATYVLDGVPRMRERPIGDLVVGLKQLGADVDCFLGTDCPPVRVNGIGGLPGGKVKLSGSISSQYLSALLMAAPLALGDVEIEIIDKLISIPYVEMTLRLMERFGVKAEHSDSWDRFYIKGGQKYKSPKNAYVEGDASSASYFLAGAAITGGTVTVEGCGTTSLQGDVKFAEVLEMMGAKVTWTSTSVTVTGPPREPFGRKHLKAIDVNMNKMPDVAMTLAVVALFADGPTAIRDVASWRVKETERMVAIRTELTKLGASVEEGPDYCIITPPGKLNVTAIDTYDDHRMAMAFSLAACAEVPVTIRDPGCTRKTFPDYFDRLSTFVKN
B1: in data set [1], the Km was 165 µM, the catalytic constant (kcat) turned out to be 6.63 s⁻¹ and the kcat/Km is recorded as 2.41 min^−1uM^−1.

B2: Zea mays EPSPS, native, SEQ ID NO:2 (Zea mays) (protein)
chain: B1 chain with A102G, S302E, G391E, R438V
With B2, in data set [2] (setting [8]), the Km was found to be 11.0 µM and the catalytic constant (kcat) worked out at 17.27 s⁻¹.

B3: Zea mays EPSPS variant WT-FS-E2 (102A 302S 391G 438R I208L) (Zea mays; E301S/E390G/G101A/I207L/V437R) (protein)
chain: B1 chain with I208L
B3: in data set [3], the Michaelis-Menten constant (Km) worked out at 87.7 µM, the kcat stood at 9.93 s⁻¹ and the kcat/Km is given as 6.80 min^−1uM^−1.

B4: Sor ha, native: native EPSPS from sorghum (Sorghum halepense) (protein)
chain: B1 chain with M1A, R61N, A72V, A102G, V161I, S302E, E313Q, G391E, R438V
modifications: Sorghum halapense
With B4, in data set [4], the “Reaction rate, 200 uM, no glyph” value was 1376 and the “Reaction rate, 30 uM, 1 mM glyph” value was −2.2.

B5: Zea mays EPSPS variant WT-FS-B (103I 107S 278G 338S) (Zea mays; A337S/P106S/T102I/T277G) (protein)
chain: B1 chain with A102G, T103I, P107S, T278G, S302E, A338S, G391E, R438V
As for B5, in data set [5], the Km is 27.7 µM, the kcat amounted to 1.62 s⁻¹ and the kcat/Km stood at 3.57 min^−1uM^−1.

B6: Zea mays EPSPS variant WT-FS-D (101S 107L 302S 338S) (Zea mays; A100S/A337S/E301S/P106L) (protein)
chain: B1 chain with A101S, A102G, P107L, A338S, G391E, R438V
As to B6, in data set [6], the Km came out at 20.5 µM, the kcat is 30.9 s⁻¹ and the kcat/Km was found to be 92.3 min^−1uM^−1.

B7: Zea mays EPSPS variant G102A (Zea mays; G101A) (protein)
chain: B1 chain with S302E, G391E, R438V
On to B7, for which, in data set [2] (other: PEP varied), the Michaelis-Menten constant (Km) turned out to be 310 µM. In data set [2] (setting [9]), the Km is 407 µM and the catalytic constant (kcat) came to 14.3 s⁻¹.

B8: Zea mays EPSPS variant P107L (Zea mays; P106L) (protein)
chain: B1 chain with A102G, P107L, S302E, G391E, R438V
As for B8, the Km in data set [2] (other: PEP varied) worked out at 67.1 µM. In addition, in data set [2] (setting [10]), the Michaelis constant (Km) came to 59.7 µM and the catalytic constant (kcat) is 22.93 s⁻¹.

B9: Sor ha C1 mutations: mutated version of the EPSPS sequence from sorghum that contains the 123-C1 mutations (protein)
chain: ARGWEEIVLQPIKEISGTVKLPGSKSLSNRILLLAALSEGTTVVDNLLNSEDVHYMLGALNTLGLSVEADKVAKRAVVVGCGGRFPVEDAKEEVQLFCGNAATAMRPLTAAVTAAGGNATYVLDGVPRMRERPIGDLVVGLKQLGADVDCFLGTDCPPVRINGIGGLPGGKVKLSGSISSQYLSALLMAAPLALGDVEIEIIDKLISLPYVEMTLRLMERFGVKAEHSDSWDRFYIKGGQKYESPKNAYVEGDASSASYFLAGAAITGGTVTVEGCGTTSLQGDVKFAEVLEMMGAKVTWTETSVTVTGPPRQPFGRKHLKAIDVNMNKMPDVAMTLAVVALFADGPTAIRDVASWRVKETERMVAIRTELTKLGASVEEGPDYCIITPPPKLNVTAIDTYGDHRMAMAFSLAACAEVPVTIRDPGCTRKTFPDYFDVLSTFVKN
modifications: Sorghum halapense H6T5X2 with C1 mutations
Take B9: in data set [4], the “Reaction rate, 200 uM, no glyph” value worked out at 356 and the “Reaction rate, 30 uM, 1 mM glyph” value was 60.0.

B10: 868-H6: maize EPSPS with A2R, A4W, A72Q, K84R, L98C, G102A, I208L, T279A, E302S, T361S, E391G, D402G, A416G, V438R, T441Q (protein)
chain: MRGWEEIVLQPIKEISGTVKLPGSKSLSNRILLLAALSEGTTVVDNLLNSEDVHYMLGALRTLGLSVEADKQAKRAVVVGCGGRFPVEDAKEEVQLFCGNAATAMRPLTAAVTAAGGNATYVLDGVPRMRERPIGDLVVGLKQLGADVDCFLGTDCPPVRVNGIGGLPGGKVKLSGSISSQYLSALLMAAPLALGDVEIEIIDKLISLPYVEMTLRLMERFGVKAEHSDSWDRFYIKGGQKYKSPKNAYVEGDASSASYFLAGAAITGGTVTVEGCGTASLQGDVKFAEVLEMMGAKVTWTSTSVTVTGPPREPFGRKHLKAIDVNMNKMPDVAMTLAVVALFADGPTAIRDVASWRVKESERMVAIRTELTKLGASVEEGPDYCIITPPGKLNVTAIDTYGDHRMAMAFSLAACGEVPVTIRDPGCTRKTFPDYFDRLSQFVKN
modifications: maize clone 868-H6
notes: maize EPSPS with A2R, A4W, A72Q, K84R, L98C, G102A, I208L, T279A, E302S, T361S, E391G, D402G, A416G, V438R, T441Q
Turning to B10, in data set [7], the “hairy root growth in the presence of 25 uM glyphosate” value is recorded as “generated hairy roots”.

B11: 771-C2: maize EPSPS with A4W, H54M, L98C, G102A, K173R, I208L, K243E, E302S, T361S, E391P, D402G, A416G, V438R, S440R, T441Q, F442V (protein)
chain: B10 chain with R2A, H54M, Q72A, R84K, K173R, K243E, A279T, G391P, S440R, F442V
modifications: maize clone 771-C2
notes: maize EPSPS with A4W, H54M, L98C, G102A, K173R, I208L, K243E, E302S, T361S, E391P, D402G, A416G, V438R, S440R, T441Q, F442V
As for B11, the “hairy root growth in the presence of 25 uM glyphosate” value in data set [7] is “generated hairy roots”.
